In the supplement of paper PMC9170038:

Tested on: MS2 coat protein
Assay: apparent KD of MS2 coat protein; designed switch direction (-1 OFF switch, 1 ON switch): -1; higher = weaker reporter binding
How it was run: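 The reported apparent KD is a per-design median over clusters, from curve fits of normalised cluster fluorescence. Protein titrations used SNAP-549-labelled MS2 coat protein, doubled from 0.7 or 1.5 nM to 3 µM, in Tris-HCl pH 7.5 buffer with KCl, MgCl2, BSA, DTT, tRNA and Tween-20, with no input, 200 uM small-molecule ligand, or an oligonucleotide input. The RNA switches were transcribed on Illumina chips by stalled E. coli RNA polymerase.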

[1] = Eterna round: R95, input ligand: FMN 200 uM
[2] = Eterna round: R95, input ligand: microRNA oligo, concentration not stated
[3] = Eterna round: R95, input ligand: none
[4] = input ligand: microRNA oligo, concentration not stated

Sequence | apparent KD of MS2 coat protein (input ligand: FMN 200 uM) | apparent KD of MS2 coat protein (input ligand: none) | apparent KD of MS2 coat protein [1] | apparent KD of MS2 coat protein [2] | apparent KD of MS2 coat protein [3] | apparent KD of MS2 coat protein [4]
AGCUUUUUGUUUUUGGGUGACAUGAGGAUCACCCAUGUCUUAUGGGCCCAGUAGUAGUAAGAUAGAAGGGACCCACG [-20.8, -41.27, a 31%] (Eterna round: R97, puzzle: Sensor, turn-off variant 1) | 639 nM | 731 nM | – | – | – | –
AUAAUGUGAGGAUAUAUGAAUCACGGUGAUACACCGUGAAGAUAGAAGGUACAUGAGGAUCACCCAUGUAGGGC [Mod of Anonveat 14 - Jieux - Exclusion 4] (Eterna round: R97, puzzle: Exclusion 4) | 39.5 nM | 42.3 nM | – | – | – | –
ACACAGCAAGGAUAUACAUGAGGAUCACCCAUGUGGUGGCCGUUACGGUAGGACUAGUGUAGAAGGUGCAUUGG [EX3 #32] (Eterna round: R97, puzzle: Exclusion 3) | 637 nM | 469 nM | – | – | – | –
AGUACUAACACGAAAGUGUUAGUACAAUAAGCUUGUGAAACAUGAGGAUCACCCAUGUCCUCUUAAGCUCGUCUUAU [salish99_TOv2_r3_047] (puzzle: Sensor v3, turn-off variant 2) | – | – | 116 nM | 329 nM | 124 nM | –
AACGUGCUGCGAGGAUAUACAUGAGGAUCACCCAUGUGGAUGUCUGAGGCAAAGCCUCAGACAAUGUAGAAGGCGCAGUACGAA [Mat - Exclusion NG 2 - Mod of JL - D57] (Eterna round: R96, puzzle: Exclusion NG 2) | 72.5 nM | 19.6 nM | – | – | – | 18.7 nM
UGUACUAUGCGAGCUGACUUGCGUAGUGCAGCAGGUGUUACAUGAGGAUCACCCAUGUCCUCAUUUGCUCGUCUUAU [SL-sv3-2.04 JL mod] (puzzle: Sensor v3, turn-off variant 2) | – | – | 289 nM | 231 nM | 200 nM | –
GGAAUGUAAGGAUAUCCGAAAAGCGAGCGAAAGCGAGCAAAGGAGAAGGUACAUGAGGAUCACCCAUGUAAGGG [AK-MS2ROC-r4-exclusion4-12] (Eterna round: R97, puzzle: Exclusion 4) | 58.9 nM | 768 nM | – | – | – | –
GUCAGGAAUGUAGGAUAUCUGCACGUUUAGUGCAGAGAAGGACAUGAGGAUCACCCAUGUAUAGUAGCUUCGGCUACACCUGAC [ENG1-A2] (Eterna round: R96, puzzle: Exclusion NG 1) | 19.3 nM | 15.9 nM | – | – | – | 12.5 nM
UCUUAUUGCAAGGAUAUGCAAAUUAUUUUUUAAGCAGAAGGUGCAACAUGAGGAUCACCCAUGUUUCCGGGCAA [JR_E6_Sub038] (puzzle: Exclusion 6) | – | – | – | 16.8 nM | – | –
CUCCUCAUGGCGCCUAAACACAUGAGGAUCACCCAUGUAUAGGCUUUUUGCCGUCUUAUAAUAAAACCGAGGAUGCG [Rianza] (puzzle: Sensor v3, turn-off variant 1) | – | – | 28.7 nM | 276 nM | 21.9 nM | –
CAUAUUGUAGGAUAUAUUCGAAAGGUCCUCUUCCCAUACCGACAUGAGGAUCACCCAUGUAGAAGGAUAGUGCC [Eternabot (L2) Solution 13] (Eterna round: R97, puzzle: Exclusion 2) | 48.9 nM | 53.6 nM | – | – | – | –
GGUACUCAAAGAGUACCAAUACGAACAUGAGGAUCACCCAUGUAGGAUAUGCUACUCAAAGAGUAGCAGAAGGACGUGUAUCUU [Far Half Aptamer v3] (Eterna round: R96, puzzle: Exclusion NG 3) | 60.5 nM | 30.8 nM | – | – | – | 18.9 nM
AAUACAAGCUAUUGAUCCCACAUGAGGAUCACCCAUGUAGCUGGCCGUGAGACCAGCUUUACGAUAGCUCGUCUUAU [Sensor-V1 #50] (Eterna round: R97, puzzle: Sensor, turn-off variant 1) | 261 nM | 263 nM | – | – | – | –
UUUUUGUGAGGAUAUGGAAUAUCUUCUAUUUAUUAUUAAUUCCAGAAGGCACAUGAGGAUCACCCAUGUAUUUU [Ex4 - 3 - 35] (puzzle: Exclusion 4) | – | – | – | 20.7 nM | – | –
UCACGGGACUAAGGAUAUACAUGAACUAUUAUUGUAGAAGGUAGAAUGUUAGCUUAUACACUAAACAUGAGGAUCACCCAUGUA [JR_ExcNG1_Sub095] (Eterna round: R96, puzzle: Exclusion NG 1) | – | – | – | – | – | 26.9 nM
CAUGUUUGUCGUUGAUCCAACAUGAGGAUCACCCAUGUCUCUUUAGCUUUUUGCUCGUCUUAUCCUCCUUUGUUCAC [JR_STOV1_v2_Sub0101] (Eterna round: R97, puzzle: Sensor, turn-off variant 1) | 65.5 nM | 401 nM | – | – | – | –
CCUCCACAUGAGGAUCACCCAUGUAAGGAUAUACCACGCUAAGGCAAACAAAAGAACGGUAGAAGGUACCUGGC [Eternabot (Original) Solution 44] (Eterna round: R97, puzzle: Exclusion 1) | 32.7 nM | 23.5 nM | – | – | – | –
GGAUCGAGUGUGAGGAUAUGCUGGUCGUAAGAUCAGCAGAAGGCACAUGAGGAUCACCCAUGUGAAAACGGUCC [Mat - Exclusion 4 - JL Mod - D72] (puzzle: Brourd's mod of Exclusion 4) | – | – | – | 25.6 nM | – | –
GGCCCAUGAGGAUAUCAGUCUGGAUCAGACUAGAUCCUGACUGAGAAGGCACAUGAGGAUCACCCAUGUAGGCC [Eli 4x 4.30] (Eterna round: R97, puzzle: Exclusion 4) | 17.3 nM | 23.6 nM | – | – | – | –
AAAGUCGGAGGAUAUACAAUAGAUGACAAUAAAGUUGGAGUACAUGAGGAUCACCCAUGUAGAAGGCCGAGAAA [Swimmer becomes a laser gun] (puzzle: Exclusion 2) | – | – | 28.2 nM | 17.3 nM | 20.6 nM | –
GCAGCAUAGUUAACAUACUGUUACAUGAGGAUCACCCAUGUACAGGAUAUGGUCUGGAUUACAGGCCAGAAGGGUACAAGCUGC [Eli exng3 - 020] (Eterna round: R96, puzzle: Exclusion NG 3) | 10.7 nM | 12.6 nM | – | – | – | 7.8 nM
CUCAGGGUGCAGGAUAUCAUGGGAUAUCCCACCUGAGAAGGGCGAACAUGAGGAUCACCCAUGUGAGUGGGAGA [Eternabot (L2) Solution 85] (Eterna round: R97, puzzle: Exclusion 6) | 488 nM | 441 nM | – | – | – | –
AGUAACUAUCACGAAAGUGAUAGUUACAAAAGCAGUGAAACAUGAGGAUCACCCAUGUCCUCAUUUGCUCGUCUUAU [Sensor 3 - 24] (puzzle: Sensor v3, turn-off variant 2) | – | – | 53.4 nM | 576 nM | 66.5 nM | –
GUAUAGCUAAAGGAUAUUCUCCGACGACGUGAAGAAGAAGGUUGGACAUGAGGAUCACCCAUGUGUACAGGAUA [Eternabot (L2) Solution 62] (Eterna round: R97, puzzle: Exclusion 6) | 21.9 nM | 21.8 nM | – | – | – | –
CGCAUGCAAGGAUAUACUUGCAGUGAUAUUCGAUAAAGUCUACUUGAGGAUCACCCAAGUAGAAGGUGCAUGCG [Exclusion 2 (Mod6.1 JL EX2 4.74 Vienna UCT mod of Mamaed)] (Eterna round: R97, puzzle: Exclusion 2) | 33.3 nM | 25 nM | – | – | – | –
